Measurements reported in US11555055B2, “Peptide inhibitors of insulin-degrading enzyme” (The Regents of the University of California, priority 2017, dated 2023).
Bridges are numbered along the chain shown (N, C = ends). Where no end group is shown, it is not given here.

Columns and labels:
[1] = system: multiple matrix-metalloproteases (MMPs); test: Matrix Metalloproteinase (MMP) Inhibitor Profiling Kit, positive control; assay type: biochemical; settings: P<0.01
Method: FIG. 8A-B. Selectivity of P12-3A for IDE vis-à-vis other proteases. Activity of P12-3A (100 μM) against (A) multiple matrix-metalloproteases (MMPs) and (B) multiple peptidases of different protease classes. […] Data are mean±SEM, n=8-16 per group. P<0.05 by 2-tailed Student's t-test. […] See Experimental Procedures for details. NEP, neprilysin; mCatD, murine cathepsin D; hCatD, human cathepsin D.
Degradation Assays—IDE activity was quantified by monitoring the degradation of (7-methoxycoumarin-4-yl)acetic acid-[…](2,4-dinitrophenyl) (FRET1, 5 μM) (49,55), fluoresceinated and biotinylated amyloid β-protein (FAβB; 500 nM) or recombinant human insulin (50 nM) in PBS supplemented with 0.05% BSA. FRET1 degradation was measured by changes in fluorescence (λex=340 nm, λem=420 nm); FAβB degradation was monitored by fluorescence polarization (λex=488 nm, λem=525 nm), as described (56); and insulin degradation was quantified by ELISA. In vitro activity assays incorporated recombinant human IDE (1 nM) purified from bacteria (35). For quantitation of insulin degradation in primary murine skin fibroblasts, cells (1×10^5/well) were plated in 96-well plates and maintained in DMEM supplemented with 10% fetal bovine serum (FBS), 2 mM glutamine, penicillin and streptomycin. […]

[2] = molecular target: T1, recombinant human insulin-degrading enzyme (IDE) (human, UniProt P14735 42-1019, limits assumed); test: IDE activity assay, FRET1 degradation
T1 construct: Used at 1 nM in the in vitro activity assays; immobilised on plates for phage panning
T1 sequence (looked up): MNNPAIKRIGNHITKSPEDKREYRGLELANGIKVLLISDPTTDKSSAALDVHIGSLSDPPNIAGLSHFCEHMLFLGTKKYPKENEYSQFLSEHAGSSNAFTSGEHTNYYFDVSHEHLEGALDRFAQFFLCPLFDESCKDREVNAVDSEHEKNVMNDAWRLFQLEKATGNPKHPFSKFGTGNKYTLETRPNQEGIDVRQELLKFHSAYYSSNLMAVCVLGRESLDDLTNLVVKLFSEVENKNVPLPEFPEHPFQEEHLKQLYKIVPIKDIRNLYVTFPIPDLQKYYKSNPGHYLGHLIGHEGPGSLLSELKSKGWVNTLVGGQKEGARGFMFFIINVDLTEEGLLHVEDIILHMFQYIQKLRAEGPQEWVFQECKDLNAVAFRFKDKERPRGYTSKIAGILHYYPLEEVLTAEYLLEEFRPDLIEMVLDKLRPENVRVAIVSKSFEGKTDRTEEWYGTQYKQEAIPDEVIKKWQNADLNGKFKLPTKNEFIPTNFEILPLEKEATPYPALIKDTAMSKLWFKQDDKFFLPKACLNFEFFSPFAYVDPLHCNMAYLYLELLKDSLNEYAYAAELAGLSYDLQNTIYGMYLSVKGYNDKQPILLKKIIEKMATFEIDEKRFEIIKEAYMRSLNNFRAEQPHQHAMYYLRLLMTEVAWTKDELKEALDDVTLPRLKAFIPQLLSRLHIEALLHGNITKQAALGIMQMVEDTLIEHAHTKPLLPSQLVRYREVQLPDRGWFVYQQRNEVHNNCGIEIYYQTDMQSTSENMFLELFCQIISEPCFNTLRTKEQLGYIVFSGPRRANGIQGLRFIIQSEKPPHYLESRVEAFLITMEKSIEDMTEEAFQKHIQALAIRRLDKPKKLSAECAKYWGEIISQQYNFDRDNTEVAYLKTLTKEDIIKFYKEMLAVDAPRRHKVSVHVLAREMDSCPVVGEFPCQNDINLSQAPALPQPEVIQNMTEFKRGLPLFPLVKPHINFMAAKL

[3] = molecular target: T1, recombinant human insulin-degrading …; test: IDE activity assay, FAβB degradation (fluorescence polarization)
[4] = molecular target: T1, recombinant human insulin-degrading …; test: FRET1 activity assay after 0 or 4 h pre-incubation of the peptide with IDE
[5] = molecular target: T1, recombinant human insulin-degrading …; test: IDE activity assay, FRET1 substrate; IC50 converted to Ki (Cheng-Prusoff)
[6] = molecular target: T1, recombinant human insulin-degrading …; test: IDE activity assay, insulin substrate (ELISA); IC50 converted to Ki (Cheng-Prusoff)

**Q.** `COc1ccc(S(=O)(=O)N(CC(=O)NO)CC(C)C)cc1` [NNGH] was tested. Which “inhibition of MMPs by positive control” value [1] did it give?
**A.** significant inhibition

**Q.** What does the source list for QSLPWCYPHCVT-NH2 (disulfide 6-10 (inferred), also called cyclized P12-3A) [P12-3A, deliberately cyclized, highly pure cosmetic-grade version]?
**A.** Ki [2]: 2.7 µM; Ki [3]: 2.1 µM

B1: P12-3A (QSLPWCYPHCVT-amide), as first synthesized, not deliberately cyclized (peptide)
peptide: H-QSLPWCYPHCVT-NH2
modifications: not fully specified; printed as QSLPWCYPHCVT-amide; cysteine pairing not given here
notes: also called C-terminally amidated variant of P12-3
**Q.** For B1, which “fold increase in potency at the 4-h time point relative to t=0” value [4] is on record?
**A.** 1 fold

B2: P12-3 (peptide)
peptide: H-QSLPWCYPHCVT-OH
modifications: not fully specified; cysteine pairing not given here
notes: Two cysteines predicted to form a disulfide bond; not deliberately cyclized before testing
**Q.** For B2, which Ki [5] is on record?
**A.** 8.9 µM

**Q.** And the Ki [6]?
**A.** 3.9 µM
